Measured values from the supplement of paper PMC10567573.

B1: CLK3 (parent)
chain: FGEDYYGPSRSRHRRRSRERGPYR

Variants of: B1
Experiment: protein stability index of a GFP-peptide fusion (GPS, HEK-293T) (PSI 1-6); higher = more stable
Settings: c terminus: a fixed tail appended
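Further: lentivirally expressed fusions sorted by FACS into six bins by GFP to DsRed ratio, PSI derived from sequencing read proportions per bin multiplied by bin number.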

Protein stability index: each site, then its substitutions
G7: D 3.27, T 3.53, A 3.32, Q 2.82, V 4.13, C 2.95, H 2.07, L 2.96, N 2.06, M 3.06, S 3.25, Y 2.78, I 4.23, R 3.07, W 2.06, E 4.32, K 3.71
Y5: I 4.44, P 4.3, F 3.11, D 4.95, E 4.86, S 3.8, M 3.5, G 4, R 5.21, C 4.48, A 3.53, Q 4.7, K 5.11, N 4.51, H 4.64, V 4.36, L 4.47, T 5.24
G2: M 3.85, N 4.4, P 3.52, L 3.38, A 2.87, E 4.89, Y 4.01, R 4.89, Q 2.49, H 2.5, C 2.52, S 2.96, K 4.75, I 1.99, D 5.06, F 3.98, W 4.3, V 1.03, T 2.65
P8: Q 1.59, W 1.53, H 1.61, F 1.74, K 1.58, G 2.3, Y 2.99, T 2.61, D 1.92, I 2.19, E 2.56, N 2.32, C 2.48, R 1.44, S 2.38, V 1.42, A 1.71, L 1.51
H13: N 2.55, V 2.16, T 2.7, Y 2.52, I 2.78, A 2.16, K 3.53, G 2.46, Q 2.48, W 1.93, F 2.64, S 2.52, C 2.29, M 3.25, E 2.21, D 2.16, L 2.18, P 2.96
D4: T 3.38, A 3.2, L 2.5, Y 3.63, C 2.81, V 3.58, F 3.2, R 3.34, N 2.1, K 3.44, H 3.52, W 2.16, I 3.86, G 1.9, S 2.21, E 3.79, Q 2.55, P 3.59, M 2.29
S11: V 2.35, N 2.21, K 3.18, W 2.3, L 1.92, D 2.57, T 2.86, Y 2.99, H 3.12, F 2.76, P 3.1, Q 2.65, C 2.95, R 2.53, E 2.02, M 2.13, I 2.56, G 2.58, A 2.97
R10: K 2.58, A 2.9, H 3.62, Q 2.7, T 2.41, W 2.85, S 3, G 3.15, M 3.16, Y 2.12, E 3.36, P 2.82, F 2.31, I 2.64, L 3.03, D 2.75, C 2.45, V 2.52, N 2.63
R16: E 2.86, D 2.15, L 1.62, G 2.52, Q 2.97, S 1.77, H 2.35, T 2.2, N 2.26, W 2.33, M 1.9, K 2.46, F 1.64, A 1.87, I 1.96, P 1.63, V 2.23, C 1.97
R12: E 2.58, A 2.13, N 2.52, H 2.51, S 2.1, K 3.19, V 2.11, T 2.27, D 1.86, Q 2.31, W 2.44, M 2.03, G 2.16, Y 2.58, F 2.18, P 2.39, L 1.48, I 1.95
S9: R 3, N 2.82, I 2.47, Q 2.63, W 2.17, F 2.21, M 1.69, E 2.73, V 2.38, H 2.33, Y 2.56, C 2.35, D 2.84, K 2.74, T 2.58, G 3.16, P 2.56, A 2.39, L 2.55
S17: P 2.6, M 3.93, H 3.52, G 3.1, K 2.81, Y 3.4, F 3.51, W 4.02, R 4.26, L 2.43, C 2.83, I 3.18, D 2.58, E 2.01, Q 2.89, T 3.45, A 2.85, V 2.86, N 3.93
Y6: D 4.59, H 4.07, C 4.75, W 2.52, K 5.1, S 4.96, P 4.78, V 4.02, Q 5.36, I 4.38, T 4.27, G 5.15, N 4.47, E 4.84, R 4.67, L 3.98, A 4.61, F 2.4, M 4.17
R14: K 3.03, H 2.44, M 2.13, Y 2.02, S 2.19, E 2.66, I 2.41, F 2.83, A 1.88, D 2.31, N 2.89, V 2.22, W 3.15, Q 2.25, P 2.08, G 2.62, L 2.27, T 2.42, C 1.85
R18: A 2.06, W 3.29, T 2.32, I 2.23, P 2.37, K 2.46, M 2.89, E 1.8, N 1.96, Q 2.45, F 2.73, G 2.54, S 1.83, Y 2.36, V 2.29, L 2.22, C 2.21
E19: A 3.59
F1: I 4.57, S 5.1, C 4.54, H 4.65, W 4.57, R 5.35, M 4.92, A 4.83, P 4.87, E 5.1, K 4.99, D 5.21, G 4.79, L 4.08, T 5.16, N 4.44, Y 3.36, V 5.33, Q 5.13
R15: N 2.47, P 2.54, L 2.23, M 3.55, E 1.95, C 1.57, V 2.1, F 1.85, G 1.98, S 2.04, Q 1.98, T 1.91, D 2.34, I 2.43, A 2.18, K 3.27, Y 2.69, H 2.18, W 2.11
E3: N 3.63, S 1.73, K 3.96, A 3.9, W 3.63, D 2.86, Y 4.08, T 3.75, L 4.43, Q 4.38, R 3.46, V 4.08, C 3.26, P 3.41, M 3.83, G 2.27, F 4.87, H 4.21, I 4.08
